# Results: IntAct's records for PubMed 19118384
# B1: FAS-associated death domain protein (Homo sapiens), Q13158 (parent)
# chain: MDPFLVLLHSVSSSLSSSELTELKFLCLGRVGKRKLERVQSGLDLFSMLLEQNDLEPGHTELLRELLASLRRHDLLRRVDDFEAGAAAGAAPGEEDLCAAFNVICDNVGKDWRRLARQLKVSDTKIDSIEDRYPRNLTERVRESLRIWKNTEKENATVAHLVGALRSCQMNLVADLVQEVQQARDLQNRSGAMSPMSWNSDASTSEAS
# Variants of: B1
# Settings: with FAS
row,Variant,effect of a mutation on the interaction
1,L172E,decreasing interaction
